Results from patent WO2018223004A1 (dated 2018).

Molecular target: T1, human CD20 (B-lymphocyte antigen CD20) (human, UniProt P11836 1-297)
T1 sequence (looked up): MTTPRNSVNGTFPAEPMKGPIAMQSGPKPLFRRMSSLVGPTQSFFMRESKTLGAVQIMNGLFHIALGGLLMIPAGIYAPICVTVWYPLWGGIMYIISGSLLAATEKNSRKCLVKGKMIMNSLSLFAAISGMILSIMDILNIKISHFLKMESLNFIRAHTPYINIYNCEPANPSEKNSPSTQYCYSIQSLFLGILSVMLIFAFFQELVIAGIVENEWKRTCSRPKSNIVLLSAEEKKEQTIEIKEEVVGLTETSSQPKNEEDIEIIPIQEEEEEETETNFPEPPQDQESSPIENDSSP
Assay: cell-based or functional assay

EC50 of RTCC against Ramos cells with purified T cells from six healthy donors: 0.0053 to 0.0143 µg/mL
B1: XmAb13676 Anti-CD20 x Anti-CD3 Fab-scFv-Fc bispecific antibody (bispecific antibody)
heavy: QVQLVQSGAEVKKPGASVKVSCKASGYTFTSYNMHWVRQAPGQGLEWMGAIYPGNGDTSYNQKFQGRVTITADKSISTAYMELSSLRSEDTAVYYCARSTYYGGDWYFNVWGAGTLVTVSSASTKGPSVFPLAPSSKSTSGGTAALGCLVKDYFPEPVTVSWNSGALTSGVHTFPAVLQSSGLYSLSSVVTVPSSSLGTQTYICNVNHKPSDTKVDKKVEPKSCDKTHTCPPCPAPPVAGPSVFLFPPKPKDTLMISRTPEVTCVVVDVKHEDPEVKFNWYVDGVEVHNAKTKPREEEYNSTYRVVSVLTVLHQDWLNGKEYKCKVSNKALPAPIEKTISKAKGQPREPQVYTLPPSREEMTKNQVSLTCDVSGFYPSDIAVEWESDGQPENNYKTTPPVLDSDGSFFLYSKLTVDKSRWEQGDVFSCSVMHEALHNHYTQKSLSLSPGK
scFv: not shown
light: QIVLTQSPSSLSASVGDRVTITCRASSSVSYIHWFQQKPGKSPKPLIYATSNLASGVPVRFSGSGSGTDYTLTISSLQPEDFATYYCQQWTSNPPTFGGGTKVEIKRTVAAPSVFIFPPSDEQLKSGTASVVCLLNNFYPREAKVQWKVDNALQSGNSQESVTEQDSKDSTYSLSSTLTLSKADYEKHKVYACEVTHQGLSSPVTKSFNRGEC
EC50 of Jeko-1 target cell killing in the absence of rituximab: 0.024 µg/mL
EC50 of Jeko-1 target cell killing with 3 μg/ml rituximab: 0.051 µg/mL
EC50 of Jeko-1 target cell killing with 10 μg/ml rituximab: 0.093 µg/mL
EC50 of Jeko-1 target cell killing with 30 μg/ml rituximab: 0.162 µg/mL
EC50 of Jeko-1 target cell killing with 100 μg/ml rituximab: 0.387 µg/mL
potency of killing of SC-1 against the cell lines with high or intermediate CD20 levels: ~10 fold
